Experimental findings from patent US20120282637A1 (Sanofi, published 2012) are described below.

Broadly, the Kd is the equilibrium constant for the complex coming apart. As a reminder, the koff is the first-order rate constant of dissociation. Read a high koff as a short-lived complex. For orientation: kon means a measure of how fast the partners come together.

Substitutions are numbered along the chain they refer to.

In the experiment the target is T1, sRAGE (V-C1-C2) lot LP08062 (human, UniProt Q15109 23-331, limits assumed).
T1 construct: domain: V-C1-C2; also called Human RAGE; LP08062 (Rage)
The experiment is described as follows: SPR (Biacore), mAb captured on anti-mouse Fc, sRAGE 15 nM, Langmuir 1:1. The method, then: The assay is based on a capture assay using immobilized anti-mouse Fc IgG on CM5 chip. For immobilization of anti-Fc antibody HBS-EP was used as running buffer. Standard amine coupling to a CM5 chip was carried out at a contact time of 11 min and a flow rate of 10 μl/min. 10 mM Sodium Acetate pH 5.0 was used as immobilization buffer. The protein concentration (anti-mouse Fc, Biacore BR-1008-38) was 100 μg/mL.
For binding analysis SN anti-RAGE mAb diluted in running buffer at 1/10 (flow rate 5 μl/min) and sRAGE (V-C1-C2) lot LP08062 diluted in running buffer at 15 nM (flow rate 50 μl/min) was used as […], respectively (running buffer: HBS-P+BSA 12 mg/mL+CM Dextran 12 mg/mL and Regeneration solution: 10 mM Glycine pH 1.7). Langmuir 1:1 analysis was used as fitting model.
Background: Surface plasmon resonance follows binding to a sensor surface in real time, without labels.

T1 sequence (Q15109 23-331 limits assumed): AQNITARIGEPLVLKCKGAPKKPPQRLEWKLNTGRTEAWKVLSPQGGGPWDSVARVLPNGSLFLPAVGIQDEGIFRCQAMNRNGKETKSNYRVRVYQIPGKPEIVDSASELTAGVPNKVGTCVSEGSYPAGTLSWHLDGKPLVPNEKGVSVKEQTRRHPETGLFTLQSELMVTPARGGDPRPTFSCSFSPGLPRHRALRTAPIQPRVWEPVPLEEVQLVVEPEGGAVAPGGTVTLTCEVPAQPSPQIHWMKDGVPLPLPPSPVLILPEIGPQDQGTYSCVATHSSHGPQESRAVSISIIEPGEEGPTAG

B1: 183 RAGE-1 (antibody, V domains shown)
VH: EVQLQQSGTVLARPGASVKMSCKASGYSFTSYWMHWVKQRPGQGLEWIGAIFPGNSDTTYNQKFKGKAKLTAVTSASTAYMELSSLTNEDSAVYYCTGLRRGFPYWGQGTLVTVSV
VL: NIVMTQSPKSMSMSVGERVTLSCKASENVGTYVSWYQQKPEQSPKLLIYGASNRYTGVPDRFTGSGSATDFTLTISSVQAEDLADYHCGQSYSYPYTFGGGTKLEIK
notes: Anti-RAGE monoclonal antibody from a hybridoma, captured by anti-mouse Fc; also called Protein 183 RAGE-1
With B1, binding was characterised by a dissociation constant (Kd) of 1.73 nM, the dissociation rate constant (koff) was determined as 0.00273 s⁻¹ and the kon worked out at 1.58e+06 M⁻¹ s⁻¹.

B2: 499 RAGE-1 (antibody, V domains shown)
VH: EVQLQQSGTVLARPGASVKMSCKASGYTFTSYWMHWVKQRPGQGLEWIGAIYPGDSDTYYNQKFKGKAKLTAVTSTSTAYMELSSLTNEDSAVYYCTRNWDYWGQGTTLTVSS
VL: DIVMTQSHKFMSTSVGDRVSITCKASQDVSTAVAWYQQKPGQSPKLLIYSASYRYTGVPDRFTGSGSGTDFTFTISSVQAEDLAVYYCQQHYNTPRTFGGGTKLEIK
notes: Anti-RAGE monoclonal antibody from a hybridoma, captured by anti-mouse Fc; also called Protein 499 RAGE-1
B2 showed a Kd of 0.793 nM, a koff of 0.00157 s⁻¹ and an on-rate constant (kon) of 1.98e+06 M⁻¹ s⁻¹.

B3: 259 RAGE-1 (antibody, V domains shown)
VH: QVQLQQSGAELVRPGTSVKVSCKASGYAFTNYLIDWVNQRPGQGLEWIGVINPGSGGTNYNEKFTGKATLTADKSSSTAYMQLSSLTSDDSAVYFCARRRVDTMDYWGQGTSVTVSS
VL: QAVVTQESALTTSPGETVTLTCRSSTGAVTTSNYANWVQEKPDHLFTGLIGGTNNRAPGVPARFSGSLIGDKAALTITGAQTEDEAIYFCALWYSNHWVFGGGTKLTVL
notes: Anti-RAGE monoclonal antibody from a hybridoma, captured by anti-mouse Fc; also called Protein 259 RAGE -1
For B3, binding was put at a Kd of 0.516 nM, the koff is 0.00224 s⁻¹ and the on-rate (kon) turned out to be 4.34e+06 M⁻¹ s⁻¹.

B4: 529 RAGE-1 (antibody, V domains shown)
VH: EIQLQQTGPELVKPGASVKISCKASGYSFTDYIMLWVKQSHGKSLEWIGNINPYYGSTFYNLKFKGKATLTVDKSSSTAYMQLNSLTSEDSAVYYCARSDYWYFDVWGAGTTVTVSS
VL: B3 VL with A57S, W98L
notes: Anti-RAGE monoclonal antibody from a hybridoma, captured by anti-mouse Fc
In turn, B4 gave a dissociation constant Kd of 0.552 nM, a koff of 0.00169 s⁻¹ and a kon of 3.06e+06 M⁻¹ s⁻¹.

B5: 501-4 RAGE-1 (antibody, V domains shown)
VH: EVMLVDSGGGLVKPGGSLKLSCAASGFTFRSYAMSWVRQTPEKRLEWVATISSGGSYTYYPDSVRGRFTTSRDNGKNTLYLQMSSLRSEDTAMYYCARHGGNYSAWFTYWGQGTLVTVSA
VL: B3 VL with G59D
notes: as for B4
With B5, the Kd is 0.0858 nM, the koff was determined as 0.000103 s⁻¹ and the kon worked out at 1.2e+06 M⁻¹ s⁻¹.

B6: 283 RAGE-1 (antibody, V domains shown)
VH: QVQLQQSGAELVRPGTSVKVSCKASGYAFTNYLIEWVKQRPGQGLEWIGVINPGSGGTNYSERFKGKATLTADKSSSTAYMQLSSLTSDDSAVYFCASYRYDGGMDYWGQGTSVTVSS
VL: B3 VL with G51R
notes: Anti-RAGE monoclonal antibody from a hybridoma, captured by anti-mouse Fc; also called Protein 283 RAGE-1
Regarding B6, the Kd was determined as 0.371 nM, the koff was 0.00196 s⁻¹ and the kon was found to be 5.29e+06 M⁻¹ s⁻¹.

B7: 184 RAGE-1 (antibody, V domains shown)
VH: QVQLQQSGAELVRPGTSVKVSCKASGYAFTNYLIEWVKQRPGQGLEWIGMINPGSGGTNYNEKFKGKATLTADKSSSTAYMQLSSLTSDDSAVYFCARGRGGHYRYFDVWGAGTTVTVSS
VL: DIVLTQSPASLAVSLGQRATISCRASKSVSTSGYSYMHWYQQKPGQPPKLLIYLASHLESGVPARFSGSGSGTDFSLNIHPVEEEDAATYYCQHSRELPWTFGGGTKLEIK
notes: Anti-RAGE monoclonal antibody from a hybridoma, captured by anti-mouse Fc; also called Protein 184 RAGE-1
The molecule B7 gave a Kd of 0.595 nM, a koff of 0.00163 s⁻¹ and a kon of 2.74e+06 M⁻¹ s⁻¹.

B8: 210 RAGE-1 (antibody, V domains shown)
VH: EIQLQQTGPELVKPGASVKISCKASGYSFTDYIMVWVKQSHGKSLEWIGTINPYYGSTSYNLKFKGKATLTVDKSSSTANMQLNSLTSEDSAVYYCARLRLYAMDYWGQGTSVTVSS
VL: QAVVTQESALTTSPGETVTLTCRSSTGAVTTSNYANWVQEKPDHLFTGLIGGTNNRAPGVPARFSGSLIGDKAALTITGAQTEDEAIYFCALWYSNHFWVFGGGTKLTVL
notes: Anti-RAGE monoclonal antibody from a hybridoma, captured by anti-mouse Fc; also called Protein 210 RAGE-1
On to B8, for which the equilibrium dissociation constant (Kd) is 0.276 nM, the off-rate constant (koff) stood at 0.00107 s⁻¹ and the on-rate (kon) is 3.88e+06 M⁻¹ s⁻¹.
